In the supplement of paper PMC10724198:
± gives the standard deviation of the averaged measurements.

System: Saccharomyces cerevisiae
Experiment: protein stability index of tFT-peptide fusion (C-terminal peptide) (PSI (0-1 scale)); higher = more stable (slower turnover)
Conditions: genetic background: wild type; temperature: 30 C
Method: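 Multiplexed protein stability (MPS) profiling in S. cerevisiae. Random 12-aa peptides (tFT-X12 library) are fused to the C-terminus of a sfGFP-mCherry tandem fluorescent timer, after mCherry and a GGGS linker. Cells are FACS-sorted into 8 mCherry/sfGFP bins and deep-sequenced. The protein stability index (PSI) is the read-weighted bin average, scaled from 0 (unstable) to 1 (stable). Only peptides with >10 reads are reported; cells were grown at 30 °C in SC-His with glucose.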
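Also: PSI is a weighted mean of sequencing reads over stability bins, variants kept only with over 10 reads, mCherry proximal and sfGFP distal, peptide attached via GGGS linker.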

Sequence	protein stability index
AWGGRVGWPKRR	0.734 ± 0.052
LPPHAPIPRWKP	0.776 ± 0.17
GSGVSDWRCFEG	0.627 ± 0.071
KEREGGSMNGGG	0.692 ± 0.064
PPRLNKAPCLDP	0.705 ± 0.036
CVTGPIDKLRLL	0.5947 ± 0.0023
PFYTNSSFCSLT	0.6677 ± 0.00075
DILLPFQFLDDF	0.6927 ± 0.00039
PPSSPHAPTALP	0.685 ± 0.032
GGLGVGPGWWGP	0.733 ± 0.043
GPTPHPVPTTCS	0.69 ± 0.016
SVTLSVSCPMLR	0.708 ± 0.024
PPPNSTPNPLST	0.7394 ± 0.0058
SPVPPSPAPLLI	0.673 ± 0.018
FGFSAVCFGNLC	0.6729 ± 0.0024
GWAFGVRGMIKK	0.74 ± 0.043
NAFSHSASRVIS	0.682 ± 0.016
EESRVRTTNNTT	0.666 ± 0.057
NYLLYSRRSVRV	0.532 ± 0.04
CVSWFWVGYWWG	0.516 ± 0.0086
IRPSQASSLRKT	0.634 ± 0.066
DLAIPPPRPRFF	0.701 ± 0.013
IAKLLHSPSTFT	0.688 ± 0.014
RRRTTTNFKVGH	0.672 ± 0.014
GEWGRVGVPGCS	0.718 ± 0.043

Sequence	protein stability index
PPTFLLRSAPSL	0.669 ± 0.043
LSFLAPGPPPAR	0.735 ± 0.039
LPPPLLPTPMAP	0.661 ± 0.09
YIDLVEGECNKK	0.685 ± 0.046
PPPPPPPPRPPS	0.651 ± 0.069
FSSAINSFAFQP	0.683 ± 0.026
EYVDVDVQDCRG	0.692 ± 0.035
GGLGWGARQGAL	0.68 ± 0.024
PPPAPSSPVLVP	0.686 ± 0.037
STDQFFLFFCVG	0.735 ± 0.2
VGERGGIGARSG	0.673 ± 0.021
MGGVGGLCGMWA	0.683 ± 0.036
SFLPRVVVRSTP	0.667 ± 0.015
PPQTHPLPCPSP	0.745 ± 0.018
TLPSRSPAPLPH	0.643 ± 0.021
FSRLLCPPSFSF	0.658 ± 0.0072
FPSPSLSSLPPL	0.725 ± 0.058
WVWGVLGAVWFG	0.632 ± 0.0091
PNPPNSSNPPSP	0.7013 ± 0.0031
HAVRQNDTYKHG	0.74 ± 0.087
EVWQGRLKGVLG	0.691 ± 0.031
THVPPSPIPPIM	0.675 ± 0.0099
NACLRNPTTKGG	0.694 ± 0.086
GKKRTGRGESAK	0.693 ± 0.062
GFCCPMFLALFS	0.587 ± 0.022

Sequence	protein stability index
GGGIVGWFCRGR	0.675 ± 0.068
IGRGAPPGWVGA	0.704 ± 0.02
QNKTKRMQKTKA	0.629 ± 0.047
RRLSGGNLLLLA	0.5914 ± 0.0018
PLPLSSSLHSQR	0.702 ± 0.0084
KLEEKRKEMERK	0.7093 ± 0.007
KKDIYRVGLKVR	0.618 ± 0.011
RRERKARREAPR	0.682 ± 0.042
RGWARGRQGCGG	0.726 ± 0.011
GVGWGDVWGCGE	0.741 ± 0.038
FASLVSPWFDLV	0.716 ± 0.13
PLFGLQTPTLHR	0.712 ± 0.057
KKKTKQTKVNKK	0.64 ± 0.072
GARAGLIDALLS	0.675 ± 0.021
LNTVRKSKDKAI	0.706 ± 0.19
VRGKGWRVGWWG	0.668 ± 0.045
GRKAEVRVLHFR	0.6447 ± 0.0055
GEGERVCVGSEF	0.745 ± 0.033
SLAASPPSPLLP	0.63 ± 0.09
CPLEYSEVVLVD	0.6268 ± 0.0022
KKKELLTKKQKD	0.637 ± 0.021
SAIAVDSPLGRG	0.653 ± 0.023
DKLLTYTLGARI	0.69 ± 0.016
PSLPPLPRSPPP	0.714 ± 0.04
RITRVRNKEQSK	0.692 ± 0.016

Sequence	protein stability index
RLTPLSSSRLPP	0.6556 ± 0.0043
TSPRILLPLNAT	0.694 ± 0.014
EWEEGREIGGRV	0.69633 ± 0.00068
LFGAVGGGVEVG	0.668 ± 0.12
CIDCGRKDIARL	0.785 ± 0.066
VFLLSPLLVPRD	0.647 ± 0.11
MGVCLGPPTVWR	0.684 ± 0.043
VPFYSPPCYSCL	0.628 ± 0.04
KRGFSLKEARGF	0.642 ± 0.008
FPRFGRGVGRRT	0.67 ± 0.0073
VELALPRGSTVV	0.6596 ± 0.005
CSSRDGLLWRFR	0.731 ± 0.088
ARIVEQTLCTKS	0.679 ± 0.057
NSAPPPPHTPPP	0.699 ± 0.018
FLRLVRIPNQVQ	0.6531 ± 0.0014
FCWRDIICAFFR	0.72 ± 0.019
SEWFETRNPMSI	0.685 ± 0.096
EKKEHNHKVKYN	0.626 ± 0.026
KGKFTRGGMAGT	0.668 ± 0.049
KVDRDRTGIHWS	0.671 ± 0.061
AGREREVLFNLH	0.679 ± 0.067
YCGGRGGGWEIG	0.682 ± 0.027
TTPYVRTSPRKP	0.654 ± 0.0091
WCVEGVWRVRGW	0.649 ± 0.044
GRRAWWQQPDDS	0.774 ± 0.099

Sequence	protein stability index
ARSALFRCGSIA	0.678 ± 0.02
VLFDGSWSGSYL	0.741 ± 0.15
LTFSPPERLSFH	0.737 ± 0.12
VWLWCDLSRGWI	0.733 ± 0.013
FPLPLPVLSSPS	0.646 ± 0.15
TKRKKLEIGFLR	0.625 ± 0.079
LRGNDRLLSKRI	0.694 ± 0.022
EWTTEQRSVGPR	0.683 ± 0.02
SSLWVGFLGCVG	0.646 ± 0.008
WVTGASRLVGRE	0.766 ± 0.13
RLNQSKSTKYSE	0.651 ± 0.012
RVWVGGPRESGQ	0.72118 ± 0.00022
PPGAQPRSPSPL	0.771 ± 0.08
PRPPPSRSFPPP	0.784 ± 0.13
QHTDNLLTHLMG	0.6551 ± 0.0028
VVAERFADAKGS	0.653 ± 0.025
GRLGRHFSVKFL	0.6584 ± 0.0052
PDLTVYNLCGGC	0.774 ± 0.098
RKCPRVCVFQSS	0.557 ± 0.017
IHLCPPPALRES	0.703 ± 0.0083
GACSPQTNDSSR	0.709 ± 0.035
SPRWAPPLPAWP	0.712 ± 0.014
EAWRQGRAGRGP	0.6148 ± 0.0034
LVGRAITTLPPV	0.66 ± 0.037
RVMGWWGARVLG	0.697 ± 0.027

Sequence	protein stability index
SPRLDPLFRSPP	0.712 ± 0.017
PAPPFPPRPSPF	0.673 ± 0.056
SPLNLRIPGAPT	0.675 ± 0.034
VALLLGSRFDFT	0.6627 ± 0.0023
PPPPPTSPPPHP	0.706 ± 0.032
CPVSWRPLCTVS	0.6177 ± 0.0054
GFVRGDRSGGGG	0.72 ± 0.0085
LPTKPVPIPRHY	0.693 ± 0.052
GAGAHCVSWLSN	0.695 ± 0.0076
HTANYILPLIHI	0.635 ± 0.044
NGRTYIDEESKI	0.745 ± 0.16
SSSLHPRPSPPL	0.692 ± 0.043
APTPPPPPPPLP	0.752 ± 0.011
PRPPTSPPSLHP	0.7 ± 0.025
KARLRQRKSTSK	0.728 ± 0.0084
GRTYWDCYFPRP	0.778 ± 0.061
SGLRHLLPSGHN	0.711 ± 0.041
RDECLRVLAPLR	0.726 ± 0.024
DSPASHWSVKSL	0.638 ± 0.043
VFGGAGVGGDCG	0.669 ± 0.012
THPPSLAPPRKA	0.712 ± 0.0074
